Assay results published in patent CN101151278A (GENENTECH INC, dated 2008).

T1: CD20 on WIL2-S cells (human, UniProt P11836 1-297)
T1 construct: whole, on cells; also called CD20抗原; 人CD20
T1 sequence (looked up): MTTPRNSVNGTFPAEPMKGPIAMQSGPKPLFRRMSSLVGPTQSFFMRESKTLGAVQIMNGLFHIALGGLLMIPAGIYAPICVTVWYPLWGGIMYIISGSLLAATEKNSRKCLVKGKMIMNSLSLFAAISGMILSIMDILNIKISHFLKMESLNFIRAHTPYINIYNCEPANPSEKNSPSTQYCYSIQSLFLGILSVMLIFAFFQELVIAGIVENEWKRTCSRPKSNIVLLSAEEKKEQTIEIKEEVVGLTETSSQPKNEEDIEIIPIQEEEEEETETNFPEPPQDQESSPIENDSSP


What was measured:
CD20 on WIL2-S cells [1] = molecular target: T1, CD20 on WIL2-S cells; test: competitive Scatchard on WIL2-S cells, apparent Kd; competitor of 125I-2H7.v138
CD20 on WIL2-S cells [2] = molecular target: T1, CD20 on WIL2-S cells; test: competitive Scatchard on WIL2-S cells, apparent Kd; competitor of 125I-2H7.v511
人FcRn [3] = molecular target: T2, 人FcRn (human, UniProt P55899 24-297; P61769 21-119, limits assumed); test: ELISA, biotinylated human FcRn on NeutrAvidin plate, pH 6.0
T2 construct: immobilised on a CM5 chip (BIAcore) or biotinylated and captured on NeutrAvidin (ELISA); also called huFcRn; human FcRn

人FcRn [4] = molecular target: T2, 人FcRn; test: ELISA, biotinylated human FcRn on NeutrAvidin plate, pH 7.4

Binder | binding result (人FcRn [3]) | binding result (人FcRn [4]) | also measured
hu2H7.v511 (antibody, human IgG1, kappa, V domains shown, full-length IgG1) VH: EVQLVESGGGLVQPGGSLRLSCAASGYTFTSYNMHWVRQAPGKGLEWVGAIYPGNGATSYNQKFKGRFTISVDKSKNTLYLQMNSLRAEDTAVYYCARVVYYSYRYWYFDVWGQGTLVTVSS VL: DIQMTQSPSSLSASVGDRVTITCRASSSVSYLHWYQQKPGKAPKPLIYAPSNLASGVPSRFSGSGSGTDFTLTISSLQPEDFATYYCQQWAFNPPTFGQGTKVEIKR |  |  | Kd (CD20 on WIL2-S cells [1]): 0.11 nM; Kd (CD20 on WIL2-S cells [2]): 0.45 nM
2H7.v477 (antibody, human IgG1, kappa, IgG1; 2H7.v138 with N434W) heavy: EVQLVESGGGLVQPGGSLRLSCAASGYTFTSYNMHWVRQAPGKGLEWVGAIYPGNGATSYNQKFKGRFTISVDKSKNTLYLQMNSLRAEDTAVYYCARVVYYSASYWYFDVWGQGTLVTVSSASTKGPSVFPLAPSSKSTSGGTAALGCLVKDYFPEPVTVSWNSGALTSGVHTFPAVLQSSGLYSLSSVVTVPSSSLGTQTYICNVNHKPSNTKVDKKVEPKSCDKTHTCPPCPAPELLGGPSVFLFPPKPKDTLMISRTPEVTCVVVDVSHEDPEVKFNWYVDGVEVHNAKTKPREEQYNATYRVVSVLTVLHQDWLNGKEYKCKVSNAALPAPIAATISKAKGQPREPQVYTLPPSREEMTKNQVSLTCLVKGFYPSDIAVEWESNGQPENNYKTTPPVLDSDGSFFLYSKLTVDKSRWQQGNVFSCSVMHEALHWHYTQKSLSLSPGK light: DIQMTQSPSSLSASVGDRVTITCRASSSVSYLHWYQQKPGKAPKPLIYAPSNLASGVPSRFSGSGSGTDFTLTISSLQPEDFATYYCQQWAFNPPTFGQGTKVEIKRTVAAPSVFIFPPSDEQLKSGTASVVCLLNNFYPREAKVQWKVDNALQSGNSQESVTEQDSKDSTYSLSSTLTLSKADYEKHKVYACEVTHQGLSSPVTKSFNRGEC | binds |  | 
2H7.v478 (antibody, human IgG1, kappa, name in EU numbering, IgG1; 2H7.v138 background with the N434 change) heavy: EVQLVESGGGLVQPGGSLRLSCAASGYTFTSYNMHWVRQAPGKGLEWVGAIYPGNGATSYNQKFKGRFTISVDKSKNTLYLQMNSLRAEDTAVYYCARVVYYSASYWYFDVWGQGTLVTVSSASTKGPSVFPLAPSSKSTSGGTAALGCLVKDYFPEPVTVSWNSGALTSGVHTFPAVLQSSGLYSLSSVVTVPSSSLGTQTYICNVNHKPSNTKVDKKVEPKSCDKTHTCPPCPAPELLGGPSVFLFPPKPKDTLMISRTPEVTCVVVDVSHEDPEVKFNWYVDGVEVHNAKTKPREEQYNATYRVVSVLTVLHQDWLNGKEYKCKVSNAALPAPIAATISKAKGQPREPQVYTLPPSREEMTKNQVSLTCLVKGFYPSDIAVEWESNGQPENNYKTTPPVLDSDGSFFLYSKLTVDKSRWQQGNVFSCSVMHEALHFHYTQKSLSLSPGK light: DIQMTQSPSSLSASVGDRVTITCRASSSVSYLHWYQQKPGKAPKPLIYAPSNLASGVPSRFSGSGSGTDFTLTISSLQPEDFATYYCQQWAFNPPTFGQGTKVEIKRTVAAPSVFIFPPSDEQLKSGTASVVCLLNNFYPREAKVQWKVDNALQSGNSQESVTEQDSKDSTYSLSSTLTLSKADYEKHKVYACEVTHQGLSSPVTKSFNRGEC | binds |  | 

Second part, led by results:

binding result (人FcRn [3]) | binding result (人FcRn [4]) | Binder | also measured
 | binds | 2H7.v364 (antibody, human IgG1, kappa, name in EU numbering, IgG1; 2H7.v138 background with the N434 change) heavy: EVQLVESGGGLVQPGGSLRLSCAASGYTFTSYNMHWVRQAPGKGLEWVGAIYPGNGATSYNQKFKGRFTISVDKSKNTLYLQMNSLRAEDTAVYYCARVVYYSASYWYFDVWGQGTLVTVSSASTKGPSVFPLAPSSKSTSGGTAALGCLVKDYFPEPVTVSWNSGALTSGVHTFPAVLQSSGLYSLSSVVTVPSSSLGTQTYICNVNHKPSNTKVDKKVEPKSCDKTHTCPPCPAPELLGGPSVFLFPPKPKDTLMISRTPEVTCVVVDVSHEDPEVKFNWYVDGVEVHNAKTKPREEQYNATYRVVSVLTVLHQDWLNGKEYKCKVSNAALPAPIAATISKAKGQPREPQVYTLPPSREEMTKNQVSLTCLVKGFYPSDIAVEWESNGQPENNYKTTPPVLDSDGSFFLYSKLTVDKSRWQQGNVFSCSVMHEALHAHYTQKSLSLSPGK light: DIQMTQSPSSLSASVGDRVTITCRASSSVSYLHWYQQKPGKAPKPLIYAPSNLASGVPSRFSGSGSGTDFTLTISSLQPEDFATYYCQQWAFNPPTFGQGTKVEIKRTVAAPSVFIFPPSDEQLKSGTASVVCLLNNFYPREAKVQWKVDNALQSGNSQESVTEQDSKDSTYSLSSTLTLSKADYEKHKVYACEVTHQGLSSPVTKSFNRGEC | 
 | binds | 2H7.v138 (antibody, human IgG1, kappa, IgG1) heavy: EVQLVESGGGLVQPGGSLRLSCAASGYTFTSYNMHWVRQAPGKGLEWVGAIYPGNGATSYNQKFKGRFTISVDKSKNTLYLQMNSLRAEDTAVYYCARVVYYSASYWYFDVWGQGTLVTVSSASTKGPSVFPLAPSSKSTSGGTAALGCLVKDYFPEPVTVSWNSGALTSGVHTFPAVLQSSGLYSLSSVVTVPSSSLGTQTYICNVNHKPSNTKVDKKVEPKSCDKTHTCPPCPAPELLGGPSVFLFPPKPKDTLMISRTPEVTCVVVDVSHEDPEVKFNWYVDGVEVHNAKTKPREEQYNATYRVVSVLTVLHQDWLNGKEYKCKVSNAALPAPIAATISKAKGQPREPQVYTLPPSREEMTKNQVSLTCLVKGFYPSDIAVEWESNGQPENNYKTTPPVLDSDGSFFLYSKLTVDKSRWQQGNVFSCSVMHEALHNHYTQKSLSLSPGK light: DIQMTQSPSSLSASVGDRVTITCRASSSVSYLHWYQQKPGKAPKPLIYAPSNLASGVPSRFSGSGSGTDFTLTISSLQPEDFATYYCQQWAFNPPTFGQGTKVEIKRTVAAPSVFIFPPSDEQLKSGTASVVCLLNNFYPREAKVQWKVDNALQSGNSQESVTEQDSKDSTYSLSSTLTLSKADYEKHKVYACEVTHQGLSSPVTKSFNRGEC | 
 | binds | 2H7.v479 (antibody, human IgG1, kappa, name in EU numbering, IgG1; 2H7.v138 background with the N434 change) heavy: EVQLVESGGGLVQPGGSLRLSCAASGYTFTSYNMHWVRQAPGKGLEWVGAIYPGNGATSYNQKFKGRFTISVDKSKNTLYLQMNSLRAEDTAVYYCARVVYYSASYWYFDVWGQGTLVTVSSASTKGPSVFPLAPSSKSTSGGTAALGCLVKDYFPEPVTVSWNSGALTSGVHTFPAVLQSSGLYSLSSVVTVPSSSLGTQTYICNVNHKPSNTKVDKKVEPKSCDKTHTCPPCPAPELLGGPSVFLFPPKPKDTLMISRTPEVTCVVVDVSHEDPEVKFNWYVDGVEVHNAKTKPREEQYNATYRVVSVLTVLHQDWLNGKEYKCKVSNAALPAPIAATISKAKGQPREPQVYTLPPSREEMTKNQVSLTCLVKGFYPSDIAVEWESNGQPENNYKTTPPVLDSDGSFFLYSKLTVDKSRWQQGNVFSCSVMHEALHYHYTQKSLSLSPGK light: DIQMTQSPSSLSASVGDRVTITCRASSSVSYLHWYQQKPGKAPKPLIYAPSNLASGVPSRFSGSGSGTDFTLTISSLQPEDFATYYCQQWAFNPPTFGQGTKVEIKRTVAAPSVFIFPPSDEQLKSGTASVVCLLNNFYPREAKVQWKVDNALQSGNSQESVTEQDSKDSTYSLSSTLTLSKADYEKHKVYACEVTHQGLSSPVTKSFNRGEC | 
